Data on 1 substance can be found in publication PMC5708760.

This assay concerns the target flag-tagged ErbB2 (Xenopus laevis, wild type) (Xenopus laevis).

Consider “recombinant EC1-3 (bacEC) (domain or fragment)”, for which the phospho-Akt (S473) by western blot, normalised to GFP-myc, in ErbB2-transfected, serum-starved Hek293T cells treated with 10 ng/mL bacEC for 1 to 60 minutes amounted to 20%.
